From paper PMC5034320, “Modulation of yeast telomerase activity by Cdc13 and Est1 in vitro” come the findings set out here.

Data set [1] has as its target T1, Cdc13-BD (Saccharomyces cerevisiae, UniProt P32797 451-693).
T1 sequence: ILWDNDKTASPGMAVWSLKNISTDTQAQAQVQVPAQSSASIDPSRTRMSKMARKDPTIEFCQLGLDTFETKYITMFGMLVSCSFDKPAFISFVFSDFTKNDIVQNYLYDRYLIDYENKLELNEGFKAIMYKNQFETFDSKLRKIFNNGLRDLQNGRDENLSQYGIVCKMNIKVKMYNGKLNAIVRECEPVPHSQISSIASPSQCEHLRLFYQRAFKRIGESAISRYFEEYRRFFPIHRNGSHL
The experiment in a line: EMSA; 20-80 nM protein, 30 nM DNA; second BD molecule binds; EMSA: room temperature 5 min (30 C in Fig 5E), 30 nM DNA, 6% native gel, buffer not stated; DMS footprint: 50 mM cacodylate pH 7.0, 25 C 10 min, then 0.05% DMS. The note with it: protein: recombinant; tags: 6xHis; label: 5'-32P; single strand. On the technique in general: Mobility shift assays separate free from complexed probe on a gel.

Data set [2] has as its target T2, Cdc13 (Saccharomyces cerevisiae, UniProt P32797 1-924).
T2 sequence: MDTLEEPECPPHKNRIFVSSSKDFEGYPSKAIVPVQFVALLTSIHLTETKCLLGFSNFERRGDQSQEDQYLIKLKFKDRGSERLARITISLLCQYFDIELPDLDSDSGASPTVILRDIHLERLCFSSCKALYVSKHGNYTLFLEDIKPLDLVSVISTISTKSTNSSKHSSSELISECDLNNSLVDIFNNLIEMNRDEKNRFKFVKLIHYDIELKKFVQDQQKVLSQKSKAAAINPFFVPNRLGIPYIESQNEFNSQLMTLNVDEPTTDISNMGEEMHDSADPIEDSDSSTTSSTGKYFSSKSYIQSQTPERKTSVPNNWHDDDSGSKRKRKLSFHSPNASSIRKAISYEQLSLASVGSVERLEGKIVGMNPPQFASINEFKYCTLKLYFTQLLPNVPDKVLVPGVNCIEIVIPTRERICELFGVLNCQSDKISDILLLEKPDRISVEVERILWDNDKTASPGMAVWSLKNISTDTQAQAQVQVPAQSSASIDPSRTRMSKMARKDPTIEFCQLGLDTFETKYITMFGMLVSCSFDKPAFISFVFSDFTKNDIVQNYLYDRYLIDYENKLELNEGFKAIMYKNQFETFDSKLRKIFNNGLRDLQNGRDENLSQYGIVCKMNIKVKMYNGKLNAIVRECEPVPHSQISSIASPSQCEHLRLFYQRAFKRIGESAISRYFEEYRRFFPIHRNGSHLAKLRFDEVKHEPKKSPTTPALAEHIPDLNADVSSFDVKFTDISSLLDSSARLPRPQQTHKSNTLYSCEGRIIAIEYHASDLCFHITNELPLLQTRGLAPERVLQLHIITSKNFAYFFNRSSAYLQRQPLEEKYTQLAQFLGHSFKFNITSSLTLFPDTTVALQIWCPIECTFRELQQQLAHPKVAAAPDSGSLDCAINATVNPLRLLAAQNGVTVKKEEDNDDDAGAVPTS
As to the kind of experiment: EMSA; 20-80 nM Cdc13, 30 nM DNA; EMSA: room temperature 5 min (30 C in Fig 5E), 30 nM DNA, 6% native gel, buffer not stated; DMS footprint: 50 mM cacodylate pH 7.0, 25 C 10 min, then 0.05% DMS. The settings on record: protein: recombinant, tags: 6xHis.

Data set [3] deals with T3, Cdc13-2 (Saccharomyces cerevisiae, UniProt P32797 1-924, E252K).
T3 sequence: T2 sequence with E252K
The experiment in a line: EMSA; affinity similar to wild-type Cdc13; EMSA: room temperature 5 min (30 C in Fig 5E), 30 nM DNA, 6% native gel, buffer not stated; DMS footprint: 50 mM cacodylate pH 7.0, 25 C 10 min, then 0.05% DMS. The note with it: protein: recombinant; tags: 6xHis; chain copies: 2; label: 5'-32P on T21; 3' overhang 15 nt (T21 strand).

The target in data set [4] is T4, Est1-TAP (Saccharomyces cerevisiae, UniProt P17214 1-699).
T4 sequence: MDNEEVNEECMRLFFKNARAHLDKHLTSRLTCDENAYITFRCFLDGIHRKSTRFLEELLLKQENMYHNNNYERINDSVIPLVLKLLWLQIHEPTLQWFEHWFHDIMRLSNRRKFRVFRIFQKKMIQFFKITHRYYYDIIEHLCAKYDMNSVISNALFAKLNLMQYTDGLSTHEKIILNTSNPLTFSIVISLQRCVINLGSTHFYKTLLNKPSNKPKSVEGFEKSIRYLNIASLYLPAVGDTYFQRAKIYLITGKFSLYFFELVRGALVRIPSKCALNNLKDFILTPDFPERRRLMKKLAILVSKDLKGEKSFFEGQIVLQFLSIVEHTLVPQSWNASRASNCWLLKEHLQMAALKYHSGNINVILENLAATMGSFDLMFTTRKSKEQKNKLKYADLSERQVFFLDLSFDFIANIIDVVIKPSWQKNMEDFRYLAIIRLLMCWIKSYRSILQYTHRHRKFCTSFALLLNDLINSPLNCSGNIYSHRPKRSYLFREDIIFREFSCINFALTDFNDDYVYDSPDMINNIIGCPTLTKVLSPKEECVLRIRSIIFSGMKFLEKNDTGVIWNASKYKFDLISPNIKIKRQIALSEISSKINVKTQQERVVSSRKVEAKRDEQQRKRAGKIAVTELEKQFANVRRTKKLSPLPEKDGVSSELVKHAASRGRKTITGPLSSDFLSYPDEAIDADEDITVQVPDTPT
The experiment in a line: EMSA; Est1-TAP alone; no stable complex; EMSA: room temperature 5 min (30 C in Fig 5E), 30 nM DNA, 6% native gel, buffer not stated; DMS footprint: 50 mM cacodylate pH 7.0, 25 C 10 min, then 0.05% DMS. The note with it: protein: recombinant; label: 5'-32P on T21; 3' overhang 15 nt (T21 strand).

Numbering of substitutions follows the chain as printed.

As to ATGGCTAGGTAGCCGAATTGCGTAGGTGGGTGTGGTGTGTGTGGG (ssDNA) [T21], the binding result in data set [1] is on record as “binds”; in data set [2] (label: 5'-32P, single strand), “binds”.

B1: T21/C20 tailed duplex (mixed)
DNA 1: ATGGCTAGGTAGCCGAATTGCGTAGGTGGGTGTGGTGTGTGTGGG
DNA 2: CCCACCTACGCAATTCGGCTACCTAGCCAT
modifications: 3'-NH2 on C20
On to B1, for which the binding result is “binds” in data set [3]; “binds” in data set [2] (chain copies: 2, label: 5'-32P on T21, 3' overhang 15 nt (T21 strand)); “no binding” in data set [4].
